Experimental data taken from the supplement of paper PMC10126150.
± gives the standard deviation of the averaged measurements.

Test system: ATP
Assay: switch fluorescence ratio, 500 uM ATP over buffer (Cy3 cluster intensity, sum of 5 cycles each) (fold (ratio)); higher = stronger signal-on switching upon ATP binding; sequences stand for … in TCGTCGGCAGCGTCAGATGTGTATAAGAGACAGTTTTTTTTTTTTTTTTTTTTTTTTT…TC
Conditions: aptamer strand: ATP DNA aptamer (quencher-CACCTGGGGGAGTATTGCGGAGGAAGG + anchor), 100 nM annealed; ATP concentration: 500 uM
Outline: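 After annealing to 100 nM quencher-labelled ATP aptamer, Cy3-labelled switching-strand clusters on a modified Illumina MiSeq flow-cell were imaged in selection buffer. A second image followed after 15 min with 500 uM ATP at 22 °C, and five such buffer/ATP cycles were done, each separated by NaOH stripping and re-annealing. The fluorescence ratio, averaged per switch-domain sequence, is summed target-cycle over summed buffer-cycle Cy3 intensity per cluster, with clusters outside 100-1000 RFU excluded.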
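Also: ATP exposure 15 min at 22 °C before imaging.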

Sequence	switch fluorescence ratio
CATTGTAAGT	1 ± 0.025
CCTTGGGACG	0.992 ± 0.062
GACGACTCGG	0.987 ± 0.026
TTTGAGGTCG	1.06 ± 0.063
CGTAACTTAC	1.6 ± 0.097
CGGTGAAGGG	0.994 ± 0.027
TTGGGGACTC	1 ± 0.026
GGTGTTGATC	1.03 ± 0.025
TAGCTGGATA	0.9837 ± 0.005
ATCGCATTG	1.24 ± 0.34
GGTTGAGTGT	0.9836 ± 0.0046
GATATGGGCA	1.04 ± 0.037
TTTTCCT	1.04 ± 0.02
CGGGCCTTTT	1 ± 0.023
TCAGTTGGAA	0.977 ± 0.039
GGGTATATGT	1 ± 0.014
AATATGGTTT	0.966 ± 0.02
AGAATTTTAG	1.01 ± 0.016
TATCATGTGT	0.977 ± 0.03
CCGTTACATG	1.05 ± 0.017
AATGAGTACG	1.02 ± 0.059
CGATTATTAT	0.975 ± 0.031
ACTGATTTGT	0.996 ± 0.048
CGACGTTAGT	0.995 ± 0.025
CATTCCGTTC	1.42 ± 0.017
CTATTTTATT	1.01 ± 0.068

Sequence	switch fluorescence ratio
ATGCGGGCCA	1.012 ± 0.0061
TATCGGGATG	0.956 ± 0.03
AGAAAGGAAG	1.01 ± 0.024
GCCAGGCACT	1.005 ± 0.0077
TAGTGAGTAC	0.93 ± 0.11
GGGATTGGTG	0.995 ± 0.026
GATGTGTTGG	0.9595 ± 0.0048
CATGCTTGGG	0.999 ± 0.012
TTTCTTTTGG	1.1 ± 0.09
TACGAAGGGT	0.987 ± 0.009
AGGGGTTAAC	1.04 ± 0.042
TGTGTACAGG	0.978 ± 0.017
TTCTTGTTTT	1.01 ± 0.016
CCTTAGTGTT	1.03 ± 0.015
GCTGTGGGGG	0.966 ± 0.013
AATTTTTCTC	1.05 ± 0.1
GATTGTTTTT	0.997 ± 0.044
CTTTGTTATG	0.9909 ± 0.0047
CTCTAGTGGC	1.1 ± 0.074
TATGTTGGGG	0.957 ± 0.018
GACTAGGCCT	0.988 ± 0.02
ATCGTTTACG	0.994 ± 0.036
TTATTTGCAT	0.994 ± 0.013
AGTAAGGGGA	1.08 ± 0.045
TGGTTTTTTA	0.993 ± 0.025
GCCTATTGTT	0.983 ± 0.02

Sequence	switch fluorescence ratio
ATGGGGATCG	0.99341 ± 0.00035
TAAGGGGGGT	1.02 ± 0.034
TGTAGCATCT	1.081 ± 0.0096
AGAGGCCTTG	0.969 ± 0.013
ACTGAACGGT	1.14 ± 0.055
CCATCGCCCT	1.17 ± 0.061
TTTGCTTTGG	0.997 ± 0.019
TTTTTAGGTA	0.992 ± 0.017
TTTTGAGATC	1.04 ± 0.045
GTGGGGTGGG	0.986 ± 0.029
CTAACATCCG	1.06 ± 0.025
GCTGCAGATT	0.988 ± 0.03
TTGTCATGAT	1.006 ± 0.006
AAACGGAGGG	0.996 ± 0.038
TATGCGCCGT	0.984 ± 0.026
GGGATCGTTG	0.965 ± 0.017
TTCCGGGACG	1.027 ± 0.0033
ACTAAAGGG	1.02 ± 0.028
ATACTGCTCT	0.968 ± 0.059
CCCATTGTAA	1.04 ± 0.025
GAAGATACGG	1.03 ± 0.032
GGTTTTCCGG	1.01 ± 0.046
GACGACATGT	1.09 ± 0.035
GTATAAGGAT	1.03 ± 0.019
ACTGGAGGAG	1.01 ± 0.017
GACGGGGGGG	1 ± 0.023

Sequence	switch fluorescence ratio
TTGCACACGC	1.26 ± 0.08
TTTAGTGGGC	0.9843 ± 0.0081
TCTACCTACA	1.33 ± 0.051
TCAGAAATGT	1.01 ± 0.021
GAAACAGACA	1.08 ± 0.035
AAGGAATTTT	1.05 ± 0.1
CACACGTTAT	1.19 ± 0.019
ATGGAAATTG	0.954 ± 0.019
TTTGGGTTCT	1.03 ± 0.031
TATCACTAGG	1.02 ± 0.0022
ACTAGGGCGT	1 ± 0.033
TCACCCGTTT	0.993 ± 0.016
GAAAAGGGGG	0.992 ± 0.053
TTTTATGGCG	1.04 ± 0.0024
GGAAATATCG	0.989 ± 0.021
TATTGACGGT	1.02 ± 0.022
TGCGATTTTT	1.01 ± 0.042
ATAATTAACG	0.986 ± 0.034
TAGCGTGAGC	1.02 ± 0.04
AAGGGTTAGA	0.9864 ± 0.0021
TATGTTGTCG	1.08 ± 0.12
ATATTAAGTT	1.01 ± 0.003
GGTTGTCTCG	0.951 ± 0.021
TTTCCTCTGG	1.95 ± 1.4
TCAACCTTTT	1.04 ± 0.052
GAGGGGTTAG	0.978 ± 0.014

Sequence	switch fluorescence ratio
CTATTTATCA	1.02 ± 0.053
TTTGATGGGT	0.993 ± 0.048
ATTATAAAGC	1.03 ± 0.063
CAAATACGTT	1.01 ± 0.029
CGCATTTTTT	1.13 ± 0.12
ACCAATTTTT	1.03 ± 0.026
ATGGTTAGAT	1.01 ± 0.017
TTCTCGTCTT	1.04 ± 0.036
CTTGGGCATG	0.988 ± 0.019
TAGGTAGCGG	0.9996 ± 0.0076
GATAGAAATT	1.01 ± 0.031
GCATTGTACG	0.991 ± 0.03
CTCAATCTTG	0.971 ± 0.043
TGCGGTATGT	1.019 ± 0.0014
TAATTTAGAA	0.975 ± 0.021
TGGCTGGAAG	0.988 ± 0.027
CACGGAGAGT	1.14 ± 0.18
GGGTGTAATC	1.01 ± 0.024
GGGGATGGTT	0.974 ± 0.03
GAGTTCAGGA	1 ± 0.021
TAAATATTT	0.996 ± 0.025
AGTGCGATGT	0.988 ± 0.016
GGGTGCCGGT	1.01 ± 0.024
AAGTCTGCCA	1.47 ± 0.66
TGCGGTAAA	1.09 ± 0.14
GTTGACAGG	1.025 ± 0.0066

Sequence	switch fluorescence ratio
TTTAGTACCT	1.2 ± 0.044
TAGTAAATCG	1.007 ± 0.0078
CGGAGGATGG	0.9867 ± 0.0084
TGCGCACGGG	1.03 ± 0.019
ATGGACAATA	1.07 ± 0.026
TTTTCAAACC	0.9953 ± 0.0034
TCCAGAAGTT	1.07 ± 0.057
GCGGACCGGG	1.04 ± 0.031
CTCACGGGGC	1.16 ± 0.16
GTGGGGGGTC	1.01 ± 0.062
AATATGATTC	0.992 ± 0.025
CTGAGTTTGA	1 ± 0.013
CTACATGCCC	1.15 ± 0.18
CAGCGTCCCT	1.07 ± 0.014
GGGGACGTTT	1.03 ± 0.043
TAAAGTTAGA	0.989 ± 0.012
GGTATATCTG	1.01 ± 0.039
TCAGCAGGGG	2.67 ± 1.9
TGGGTTCGAG	1.005 ± 0.0097
TTTGTTTATA	0.9992 ± 0.0034
TTGAGGGAGG	1 ± 0.034
TATTCCTCTG	2.03 ± 0.26
GCCGGGCAGC	0.98 ± 0.035
